Experimental data: PMC6995573
Like-named read-outs stand apart in the source and are kept apart here.

Tests used:
[1] = target: Human ornithine decarboxylase (human) (UniProt P11926)
[2] = target: Human ornithine decarboxylase (human) (UniProt P11926); remark: listed apart in the source
[3] = target: Human ornithine decarboxylase (human) (UniProt P11926); assay: AUC; sedimentation velocity, 20 °C, 30 mM Tris-HCl pH 7.4, 25 mM NaCl; ODC fixed at 0.3 mg/mL, AZ 0.02-0.19 mg/mL (AZ/ODC molar ratio 0.25 to 3); all data sets fitted to the AB hetero-association model in SEDPHAT

Human ornithine decarboxylase (human), sequence (P11926 2-421): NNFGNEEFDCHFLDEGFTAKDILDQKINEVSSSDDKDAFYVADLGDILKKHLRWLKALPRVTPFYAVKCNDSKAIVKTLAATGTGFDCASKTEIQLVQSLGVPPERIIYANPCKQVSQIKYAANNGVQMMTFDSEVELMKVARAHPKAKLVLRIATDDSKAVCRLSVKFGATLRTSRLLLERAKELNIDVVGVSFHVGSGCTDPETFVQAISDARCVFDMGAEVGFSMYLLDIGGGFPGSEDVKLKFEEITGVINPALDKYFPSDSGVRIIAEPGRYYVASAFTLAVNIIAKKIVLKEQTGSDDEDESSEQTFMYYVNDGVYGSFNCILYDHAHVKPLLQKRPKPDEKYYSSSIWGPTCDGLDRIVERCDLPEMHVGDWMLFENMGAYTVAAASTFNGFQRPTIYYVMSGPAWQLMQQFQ

Row | Substance | IC50 of inhibition of ODC enzyme activity by AZ [1] [nM] | IC50 of inhibition of ODC enzyme activity by AZ [2] [nM] | Kd [3] [nM]
1 | AZ3_S171H (natural protein) | 430 | – | –
2 | AZ3_T126K (natural protein) | 700 | – | –
3 | AZ3_D149P (natural protein) | 2050 | – | –
4 | AZ3_D136G (natural protein) | 720 | – | –
5 | AZ3_H129N (natural protein) | 670 | – | –
6 | AZ3_Q177H (natural protein) | 1340 | – | –
7 | AZ3_T106E (natural protein) | 1210 | – | –
8 | AZ3_N168R (natural protein) | 1380 | – | –
9 | AZ3_N178K (natural protein) | 670 | – | –
10 | AZ3_S124D/Q150E/K166Q/S171H/D179N (natural protein) | – | 290 | 140
11 | AZ3_Q150E (natural protein) | 480 | – | –
12 | AZ3_R137G (natural protein) | 1230 | – | –
13 | AZ3_N100R (natural protein) | 660 | – | –
14 | AZ3_A98D (natural protein) | 670 | – | –
15 | AZ3_D179N (natural protein) | 450 | – | –
16 | AZ3_S127R (natural protein) | 1020 | – | –
17 | AZ3_D112K (natural protein) | 550 | – | –
18 | AZ3_K166Q (natural protein) | 420 | – | –
19 | AZ3_G99D (natural protein) | 780 | – | –
20 | AZ3_S124D (natural protein) | 500 | – | –
21 | AZ3_N175C (natural protein) | 650 | – | –
22 | AZ3_R138S (natural protein) | 810 | – | –
23 | AZ3_S124D/Q150E/K166Q/D179N (natural protein) | – | 250 | 500
24 | AZ3_Y145G (natural protein) | 980 | – | –
